# Data published in PMC5923107 (Antimicrobial Agents and Chemotherapy, 2018).
# B1: TRL847 (antibody, V domains shown)
# VH: QVQLVESGGGLVQPGGSLRLSCVASGFTFSRFSMNWVRQAPGMGLEWVSYISDTGRTIYYADSVKGRFTISRDNDKNTLYLQMKSLRDEDSAFYYCARDPDTPFVRAFDSWGQGVLVTVSS
# VL: DIVMTQSPSFLSASVGDRVTITCRTSQVISSYLAWYQQRPGKAPKLLIYAASTLQSGVPSRFSGSGSGTRFSLTISNLQPEDFATYFCQQLTTYPPITFGQGTRLEIK
# notes: also called MAb TRL847
# B2: TRL845 (antibody, V domains shown)
# VH: QVQLVQSGGDLVQPGGSLRLSCAASGFTFSRYSMNWVRQAPGMGLEWVAYISDTSRTIYYADSVKGRFTISRDNAKNSLYLQMKSLRDEDTAVYYCARDPDTPFVRAFDSWGQGTLVTVSS
# VL: DIVLTQSPSFLSASVGDRVTITCRASQLISSYFAWYQQKPGKPPKLLIYAASTLQSGVPSRFSGSGSGTQFSLTISSLQPEDFATYYCQQLNSYPPITFGQGTRLEIK
# notes: also called MAb TRL845
# B3: TRL849 (antibody, V domains shown)
# VH: QVQLVESGPGLVKPSQTLSLTCTVSGGSISNGGYHWSWIRQHPGKGLEWIGNIYYRGSTFYDPSLKSRVTISVDTSKSQFSLKLTSVTAADTAVYYCARMPLANYDLLTGLYIGAFDLWGQGTMVTVSS
# VL: DIVLTQSPATLSVSPGERATLSCRASQSVNRNLAWFQQIPGQAPRLLIFDASTRAADIPARFSGGGSGAEFTLTVSSLQPEDFAVYYCQQYDKWPPGFGQGTKVEIK
# notes: also called MAb TRL849
# B4: TRL854 (antibody, V domains shown)
# VH: QVQLVESGAEVKKPGASVRVSCKGSGYTFTAYHMHWVRQAPGQGFEWVGWINPNSGATYYTSTFEGRVTMTRDTSITTAYMELSSLRSDDTAVYYCATDIVVERDASLGGFNSYGMDVWGQGTTVTVSS
# VL: DIEMTQSPLSLPVTPGEPASISCRSSQSLLHSNGYNHLAWYLQKPGRSPHLLIYLASTRASGVPDRFSGSGSGTDFTLKISRVEAEDVGIYYCMQSLQTSITFGQGTRLEIK
# notes: also called MAb TRL854
# B5: TRL848 (antibody, V domains shown)
# VH: QVQLLESGGDVVQPGTSLRLSCAASGFSLWTSGMHWVRQAPGKGLEWVAVMSYDETKKYYADSVRGRFSISRDNSRNTLYLQMNSLRVEDTAVYFCAKPRLDYLDYFHAADSWGQGTLVSVSS
# VL: DIVLTQPPSVSVAPGQTATITCGGNYIGSKSVNWYQQRPGHAPVLVVYDDSDRPSGIPDRFSGSNSRSTATTATLTISRVEAGDEADYYCQVWETSEDLWVFGGGTKLTVL
# notes: also called MAb TRL848
# Target: T1, hemagglutinin (HA) of influenza A virus A/California/07/2009 (H1N1, group 1) (Influenza A virus A/California/07/2009 …, UniProt C3W5X2, strain)
# T1 construct: also called A/California/07/2009 HA
# Assay: ELISA
# Conditions: both partners purified
row,Binder,binding result
1,B1,no binding (tested: 5 μg/ml (30 nM))
2,B2,no binding (tested: 5 μg/ml (30 nM))
3,B3,no binding (tested: 5 μg/ml (30 nM))
4,B4,no binding (tested: 5 μg/ml (30 nM))
5,B5,no binding (tested: 5 μg/ml (30 nM))

# Target: T2, hemagglutinin (HA) of influenza A virus A/Sydney/05/1997 (H3N2, group 2) (Influenza A virus A/Sydney/5/1997 (H3N2), UniProt C3PR59, strain)
# T2 construct: also called A/Sydney/05/1997 HA
# Assay: ELISA
# Conditions: both partners purified
row,Binder,binding result
1,B1,no binding (tested: 5 μg/ml (30 nM))
2,B2,no binding (tested: 5 μg/ml (30 nM))
3,B3,no binding (tested: 5 μg/ml (30 nM))
4,B4,no binding (tested: 5 μg/ml (30 nM))
5,B5,no binding (tested: 5 μg/ml (30 nM))

# Target: T3, biotinylated HA antigen of B/Florida/04/2006 (Influenza B virus B/Florida/4/2006, UniProt E1TVD5, strain)
# T3 construct: also called HA of B/Florida/04/2006
# Assay: BLI
# Conditions: both partners purified
Binder,binding result,Kd
B1,binds,–
B2,–,≤ 0.2 nM
B3,–,≤ 0.2 nM
B4,binds,–
B5,binds,–
